Substitutions are numbered along the chain they refer to. Numbers in names are those of the source. Non-standard residues stand in square brackets, D forms with d. No end group written: not given here. *: point of attachment. FITC = O=C1OC2(c3ccc(O)cc3Oc3cc(O)ccc32)c2ccc(NC(=S)*)cc21; pY = N[C@@H](Cc1ccc(OP(=O)(O)O)cc1)C(=O)O; Ahx = NCCCCCC(=O)O
Tests used:
[1] = system: endogenous LUBAC (HOIP, HOIL-1, SHARPIN); assay: coimmunoprecipitation of endogenous LUBAC components with HA-tagged OTULIN; type: cell-based; conditions: HA-OTULIN variants in HEK293T cells, anti-HA IP, western blot
Procedure: (§1) Transfected HEK293T or U2OS and NOD2 cells were lysed in the presence of protease and phosphatase inhibitors. Clarified lysates were incubated overnight with anti-V5 and anti-HA-agarose resin. […]
(§2) siOTULIN: […], siMM […]
(§3) Immunoprecipitation of HOIP-V5 and HA-OTULIN
(§4) HEK293T or U2OS/NOD2 cells were transfected as indicated. The cells were lysed in IP buffer buffer (25 mM HEPES pH 7.4, 150 mM KCl, 2 mM MgCl2, 1 mM EGTA, 0.5% (v/v) Triton X-100) supplemented with 5 mM NEM (Sigma-Aldrich), cOmplete protease inhibitor cocktail (Roche) and PhosSTOP
(§5) (Roche). After 30 minutes on ice, the lysates were cleared by centrifugation and incubated overnight at 4 °C with anti-V5-agarose resin or anti-HA-agarose resin. The beads were washed four times in ice-cold IP buffer and the precipitated material was eluted with 0.2 M glycine, pH 2.5. […]

[2] = molecular target: T1, HOIP PUB domain (HOIP 1-184) (Homo sapiens, UniProt Q96EP0); assay: fluorescence polarization binding of FITC-Ahx peptides to HOIP PUB domain; conditions: for reduction of HOIP binding versus wild-type OTULIN peptide: OTULIN peptide point mutants
T1 construct: PUB domains from HOIP (aa 1–184, red); His6 (3C-cleavable, pOPINB) (N, cleaved yes); made in house; host or cells: E. coli Rosetta2 (DE3) pLacI
T1 sequence (Q96EP0 1-184): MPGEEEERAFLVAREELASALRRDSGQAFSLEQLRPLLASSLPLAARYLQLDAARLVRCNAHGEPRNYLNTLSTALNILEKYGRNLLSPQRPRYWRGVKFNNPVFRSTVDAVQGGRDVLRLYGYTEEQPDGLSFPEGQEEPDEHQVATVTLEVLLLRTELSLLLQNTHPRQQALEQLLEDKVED
Procedure: Serially diluted PUB domains and HOIP variants were mixed with an equal volume of 100 nM FITC-Ahx-labeled peptides of OTULIN and p97. Fluorescence polarization was recorded on a PheraStar plate reader (BMG LABTECH) and fitted to a one-site binding model with GraphPad Prism 5.
(§6) Fluorescence polarization binding assays
10 µl of 100 nM FITC-Ahx peptides of either OTULIN (49-67) or p97 (797-806) were aliquoted into a 384-well low volume plate (Corning). Serial dilutions of HOIP PUB into FP assay buffer (20 mM Tris pH 7.4, 100 mM NaCl, 1 mM DTT) were prepared and 10 µl of this was aliquoted to FITC-Ahx peptide-containing wells. Fluorescence polarization was recorded on a PheraStar plate reader (BMG Labtech) using an optics module with $ex = 485 nm and $em = 520 nm. To derive binding constants (KD), polarization values were fitted to a one-site binding model using Graphpad Prism 5. […]

[3] = system: HOIP PUB domain (15N HOIP 1-184); assay: NMR binding (chemical shift perturbation) to 15N-labeled HOIP PUB domain; design: species or system Human; conditions: 15N BEST-TROSY NMR, 100 μM 15N HOIP 1-184, 20 mM phosphate pH 6.8, 50 mM NaCl, 2 mM DTT, 298K
Procedure: Standard triple-resonance experiments (HNCA, HN(CO)CA, HNCACB, CBCA(CO)NH, and HBHA(CO)NH) were acquired for the assignment of HOIP resonances. Constant time ^13C and ^13C-HSQC were acquired for the methyl and aromatic regions. In addition, (HB)CB(CGCD)HD and (HB)CB(CGCDCE)HE experiments coupled the Cβ of tyrosine resonances to the Hδ and Hε positions of the tyrosine ring, respectively.
as §6
10 µl of 100 nM FITC-Ahx peptides of either OTULIN (49-67) or p97 (797-806) were aliquoted into a 384-well low volume plate (Corning). Serial dilutions of HOIP PUB into FP assay buffer (20 mM Tris pH 7.4, 100 mM NaCl, 1 mM DTT) were prepared and 10 µl of this was aliquoted to FITC-Ahx peptide-containing wells. Fluorescence polarization was recorded on a PheraStar plate reader (BMG Labtech) using an optics module with $ex = 485 nm and $em = 520 nm. To derive binding constants (KD), polarization values were fitted to a one-site binding model using Graphpad Prism 5.
Nuclear Magnetic Resonance Spectroscopy
Uniformly labeled 15N or 13C, 15N samples of HOIP were prepared following growth in 2M9 medium supplemented with either 15N NH4Cl or 13C glucose.
Proteins were purified as described above and all samples were exchanged into NMR sample buffer (20 mM Na2HPO4/NaH2PO4 pH 6.8, 50 mM NaCl, 2 mM DTT). Lyophilized OTULIN and p97 PIM peptides were reconstituted in NMR sample buffer and the pH adjusted to pH 6.8 prior to use. NMR data were acquired at 298K on Bruker Avance III 600 MHz and Avance2+ 700
MHz spectrometers, equipped with cryogenic triple resonance TCI probes.
Standard triple resonance experiments (HNCA, HN(CO)CA, HNCACB, CBCA(CO)NH, HBHA(CO)NH) were acquired for the assignment of backbone
HOIP resonances. In addition, constant-time (ct) 13C and 13C-HSQC were acquired for the methyl and aromatic regions. For assignment of the H",H# resonances of HOIP tyrosines, (HB)CB(CGCD)HD and (HB)CB(CGCDCE)HE spectra were acquired, which coupled the C$ position of the tyrosine resonances to the H"/H# position of the tyrosine ring respectively. […]

[4] = molecular target: T2, HOIP extended PUB domain (aa 1–184) (UniProt Q96EP0 1-184); assay: FP
T2 chain: T1 sequence (Q96EP0 1-184)

[5] = system: endogenous OTULIN; assay: coimmunoprecipitation of endogenous OTULIN with tagged HOIP/HOIL-1; type: cell-based; conditions: tagged HOIP/HOIL-1 constructs, HEK293T or U2OS/NOD2 cells, western blot
Procedure: as §1, §2, §3, §4, §5

## OTULIN Y56F: HA-tagged full-length OTULIN with PIM point mutation Y56F
[1]
  coimmunoprecipitation of endogenous LUBAC components (in words): abrogated binding

## OTULIN Y56E: HA-tagged full-length OTULIN with PIM point mutation Y56E
[1]
  coimmunoprecipitation of endogenous LUBAC components (in words): abrogated binding

## M55D: fluorescently labeled OTULIN peptide (aa 49–67) with point mutation M55D ({FITC-Ahx}-AEHEEDDYRAADEIEKEKE)
[2]
  binding to HOIP PUB domain (in words): abrogated binding

## Y56A: fluorescently labeled OTULIN peptide (aa 49–67) with point mutation Y56A ({FITC-Ahx}-AEHEEDMARAADEIEKEKE; UniProt Q96BN8 49-67, looked up, variant Y56A)
[2]
  binding to HOIP PUB domain (in words): abrogated binding

## OTULIN D54A: HA-tagged full-length OTULIN with PIM point mutation D54A
[1]
  coimmunoprecipitation of endogenous LUBAC components (in words): Residual binding was still observed

## OTULIN 49-67: unlabeled OTULIN PIM peptide (aa 49–67) used in NMR and crystallization (AEHEEDMYRAADEIEKEKE)
[3]
  binding / chemical shift perturbations of HOIP PUB domain (in words): CSPs and loss of a large number of resonances, a feature common to slow exchange

## D54A: fluorescently labeled OTULIN peptide (aa 49–67) with point mutation D54A ({FITC-Ahx}-AEHEEAMYRAADEIEKEKE)
[2]
  reduction of HOIP binding versus wild-type OTULIN peptide: 60 fold

## OTULIN Y56A: HA-tagged full-length OTULIN with PIM point mutation Y56A
[1]
  coimmunoprecipitation of endogenous LUBAC components (in words): abrogated binding

## FITC-Ahx-OTULIN 49-63 pY56: Tyr56-phosphorylated FITC-Ahx-labeled OTULIN peptide (legend: 49–67) ({FITC-Ahx}-AEHEEDM[pY]RAADEIEKEKE)
[2]
  binding to HOIP PUB domain (in words): unable to bind HOIP

## Y56W: fluorescently labeled OTULIN peptide (aa 49–67) with point mutation Y56W ({FITC-Ahx}-AEHEEDMWRAADEIEKEKE)
[2]
  reduction of HOIP binding versus wild-type OTULIN peptide: 100 fold

B1: fluorescently labeled OTULIN peptide (aa 49–67) Y56W (peptide)
peptide: {FITC-Ahx}-AEHEEDMWRAADEIEKEKE
[4]
  Kd: 21.3 µM

B2: fluorescently labeled OTULIN peptide (aa 49–67) D54A (peptide)
peptide: {FITC-Ahx}-AEHEEAMYRAADEIEKEKE
[4]
  Kd: 11.2 µM

B3: fluorescently labeled OTULIN peptide (aa 49–67) Y56F (peptide)
peptide: AEHEEDMFRAADEIEKEKE
modifications: not fully specified (N-terminus)
[4]
  Kd: 64.5 µM

B4: OTU domain: OTULIN catalytic (OTU) domain (aa 80–352) (protein)
chain: LSVAPEMDIMDYCKKEWRGNTQKATCMKMGYEEVSQKFTSIRRVRGDNYCALRATLFQAMSQAVGLPPWLQDPELMLLPEKLISKYNWIKQWKLGLKFDGKNEDLVDKIKESLTLLRKKWAGLAEMRTAEARQIACDELFTNEAEEYSLYEAVKFLMLNRAIELYNDKEKGKEVPFFSVLLFARDTSNDPGQLLRNHLNQVGHTGGLEQVEMFLLAYAVRHTIQVYRLSKYNTEEFITVYPTDPPKDWPVVTLIAEDDRHYNIPVRVCEETSL
modifications: left off: His6 (from the vector pOPINB), end not stated, state not stated
[3]
  binding / chemical shift perturbations of HOIP PUB domain (in words): did not interact with the HOIP PUB domain

B5: Y82F: V5-tagged HOIP with point mutation Y82F in the PUB binding site (protein, UniProt Q96EP0 1-1072, looked up, variant Y82F)
E3 ubiquitin-protein ligase …: MPGEEEERAFLVAREELASALRRDSGQAFSLEQLRPLLASSLPLAARYLQLDAARLVRCNAHGEPRNYLNTLSTALNILEKFGRNLLSPQRPRYWRGVKFNNPVFRSTVDAVQGGRDVLRLYGYTEEQPDGLSFPEGQEEPDEHQVATVTLEVLLLRTELSLLLQNTHPRQQALEQLLEDKVEDDMLQLSEFDPLLREIAPGPLTTPSVPGSTPGPCFLCGSAPGTLHCPSCKQALCPACDHLFHGHPSRAHHLRQTLPGVLQGTHLSPSLPASAQPRPQSTSLLALGDSSLSSPNPASAHLPWHCAACAMLNEPWAVLCVACDRPRGCKGLGLGTEGPQGTGGLEPDLARGRWACQSCTFENEAAAVLCSICERPRLAQPPSLVVDSRDAGICLQPLQQGDALLASAQSQVWYCIHCTFCNSSPGWVCVMCNRTSSPIPAQHAPRPYASSLEKGPPKPGPPRRLSAPLPSSCGDPEKQRQDKMREEGLQLVSMIREGEAAGACPEEIFSALQYSGTEVPLQWLRSELPYVLEMVAELAGQQDPGLGAFSCQEARRAWLDRHGNLDEAVEECVRTRRRKVQELQSLGFGPEEGSLQALFQHGGDVSRALTELQRQRLEPFRQRLWDSGPEPTPSWDGPDKQSLVRRLLAVYALPSWGRAELALSLLQETPRNYELGDVVEAVRHSQDRAFLRRLLAQECAVCGWALPHNRMQALTSCECTICPDCFRQHFTIALKEKHITDMVCPACGRPDLTDDTQLLSYFSTLDIQLRESLEPDAYALFHKKLTEGVLMRDPKFLWCAQCSFGFIYEREQLEATCPQCHQTFCVRCKRQWEEQHRGRSCEDFQNWKRMNDPEYQAQGLAMYLQENGIDCPKCKFSYALARGGCMHFHCTQCRHQFCSGCYNAFYAKNKCPEPNCRVKKSLHGHHPRDCLFYLRDWTALRLQKLLQDNNVMFNTEPPAGARAVPGGGCRVIEQKEVPNGLRDEACGKETPAGYAGLCQAHYKEYLVSLINAHSLDPATLYEVEELETATERYLHVRPQPLAGEDPPAYQARLLQKLTEEVPLGQSIPRRRK
modifications: V5 tag
[5]
  coimmunoprecipitation of endogenous OTULIN (in words): decreased binding

B6: K99E: V5-tagged HOIP with point mutation K99E in the PUB binding site (protein)
chain: B5 E3 ubiquitin-protein ligase … with F82Y, K99E
modifications: left off: V5, end not stated, kept
[5]
  coimmunoprecipitation of endogenous OTULIN (in words): decreased binding

Reference: article PMC4017264 (Molecular Cell, 2014)
